Test results: US20250034266A1 (ZAI LAB SHANGHAI, published 2025)
Each block holds one binder with its values, some of them ahead of it.

Legend:
cynomolgus CCR8 [1] = target: T1, cynomolgus CCR8 (cynomolgus, UniProt G7NYJ2 1-355); experiment: FACS, hybridoma supernatant on cynomolgus CCR8 cells
T1 construct: whole, on cells; also called HEK293-Cynomolgus CCR8; ExpiCHO-S cynomolgus CCR8
Description: (§1) Binding of hybridoma supernatant on CHO-K1-human CCR8 and ExpiCHO-S cynomolgus CCR8 cells. A total of 660 96-well plates were seeded and screened by FACS binding from the hybridoma derived from immunized animals.
(§2) To obtain antibodies cross-reactive to human and cynomolgus CCR8, hybridomas from mice immunized with human and cynomolgus CCR8 DNAs were screened by FACS. Briefly, 50 μL ExpiCHO-S cells transfected with human CCR8 or cynomolgus CCR8 (cell density: 2×10⁶ cells/mL, viability>90%) were incubated with equal volume hybridoma supernatant in 96 well plate (Corning) at 4° C. for 1 hour. […] Finally, the mixture was washed and resuspended with FACS buffer, and subjected to FACS analysis on BD FACS Celesta.

human CCR8 [2] = target: T2, human CCR8 (human, UniProt P51685 1-355); experiment: FACS on CHO-K1-human CCR8 cells
T2 construct: whole, on cells; In the β-arrestin assay CCR8 is fused to the ProLink (PK) tag; also called hCCR8; CHO-K1-human CCR8
Description: (§3) The binding affinities of purified antibodies were determined on human CCR8 and cynomolgus CCR8 over-expressing cells. Briefly, CFSE (Life technology, Cat #: C34554) labeled CHO-K1-human CCR8 cells mixed with CHO-K1 cells, CFSE labeled HEK293-human CCR8 cells mixed with H1EK293 cells, or CFSE labeled H1EK293-cynomolgus CCR8 cells mixed with HTEK293 cells were used in the assay. The mix ratio was 1:1. A total of 5×10⁴ mixed cells for each well were seeded in 96-well plate and washed by FACS buffer (DPBS containing 10% FBS) once. Cells were incubated by series diluted purified hybridoma antibodies for 1 hour at 4° C. Antibodies were prepared with 3-fold serial dilution ranging from 200 nM to 0.003 nM in FACS buffer. After primary antibody incubation, cells were washed by FACS buffer for three times. Then, cells were stained with secondary antibody (Alexa Flu647-conj gated rabbit anti-mouse IgG, Jackson ImmunoResearch, #315606046) at 1:600 dilution in FACS buffer and incubated for 0.5 hour at 4° C. […] FlowJo software was used for analysis. Data was plotted as the logarithm of antibody concentration versus mean fluorescence signals. EC₅₀ values were calculated in GraphPad Prism 8 (GraphPad Software) using a log(agonist) vs. response-Variable slope (4 parameters) curve fit. […] The EC₅₀s of the selected antibodies on human CCR8 are less than 5 nM except those of 262C2G7 and 234G9C12. The EC₅₀s of the selected antibodies on cynomolgus CCR8 are less than 1 nM except that of 348E2D11 (Table 8).

cynomolgus CCR8 [3] = target: T1, cynomolgus CCR8; experiment: FACS on HEK293-Cynomolgus CCR8 cells
Description: as §3

human CCR8 [4] = target: T2, human CCR8; experiment: FACS competition, hybridoma supernatant with 4 nM AF647-human CCL1 on human CCR8 cells
human CCR8 [5] = target: T2, human CCR8; experiment: FACS, hybridoma supernatant on CHO-K1-human CCR8 cells
Description: as §1, §2

human CCR8 [6] = target: T2, human CCR8; experiment: FACS on HEK293-human CCR8 cells
Description: as §3

T2 sequence (P51685 whole entry, the tested form may be a part): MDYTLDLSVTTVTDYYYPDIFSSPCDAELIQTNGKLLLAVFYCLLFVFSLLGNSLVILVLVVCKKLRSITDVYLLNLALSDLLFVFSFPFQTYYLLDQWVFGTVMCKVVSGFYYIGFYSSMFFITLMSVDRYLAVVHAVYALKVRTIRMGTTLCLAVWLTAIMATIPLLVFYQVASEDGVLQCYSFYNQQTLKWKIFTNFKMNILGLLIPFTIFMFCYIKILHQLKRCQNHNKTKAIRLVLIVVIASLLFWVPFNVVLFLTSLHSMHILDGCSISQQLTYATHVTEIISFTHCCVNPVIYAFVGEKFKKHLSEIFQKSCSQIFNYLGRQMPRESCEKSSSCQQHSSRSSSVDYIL
T1 sequence (G7NYJ2 entry or part of it): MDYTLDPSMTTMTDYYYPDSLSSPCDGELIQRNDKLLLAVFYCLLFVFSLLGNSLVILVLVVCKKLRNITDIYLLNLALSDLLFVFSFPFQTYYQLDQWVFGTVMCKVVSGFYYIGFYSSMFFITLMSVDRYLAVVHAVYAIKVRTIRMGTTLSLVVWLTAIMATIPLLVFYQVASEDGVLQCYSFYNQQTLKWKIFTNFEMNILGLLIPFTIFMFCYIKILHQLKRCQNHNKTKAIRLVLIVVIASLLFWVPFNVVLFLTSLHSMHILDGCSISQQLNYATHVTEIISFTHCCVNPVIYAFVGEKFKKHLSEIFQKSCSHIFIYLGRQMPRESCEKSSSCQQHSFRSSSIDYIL

B1: 191E12H8 (antibody, V domains shown)
VH: DVQLQESGPGLVKPSQSLSLTCSVTGYSITSGYYWNWIRQFPGNKLEWMGYISYDGSNNYNPSLKNRISITRDISKNQFFLKLNSVTTEDTATYYCARQIGLRRGAMDYWGQGTSVTVSS
VL: DIQMTQSSSYLSVSLGGRVTITCKASDHINTWLAWYQQKPGNAPRLLISGSTSLKAGVASRFSGSGSGKDYTLTITSLQTEDVATYYCQQYWGIPFTFGGGTKLEIK
notes: Murine hybridoma antibody
- Binding Ratio (GFP + MFI)/(GFP - MFI) (cynomolgus CCR8 [1]): 91.4
- EC50 (human CCR8 [2]): 2.25 nM
- Max MFI (human CCR8 [2]): 24000 MFI
- EC50 (cynomolgus CCR8 [3]): 0.397 nM
- Max MFI (cynomolgus CCR8 [3]): 5190 MFI
- Inhibition Rate (%) (human CCR8 [4]): 84.8%
- Binding Ratio (GFP + MFI)/(GFP - MFI) (human CCR8 [5]): 345
- EC50 (human CCR8 [6]): 1.5 nM
- Max MFI (human CCR8 [6]): 10700 MFI

B4: 262C2G7 (antibody, V domains shown)
VH: DVHLQESGPGLVKPSQSLSLTCSVTGYSITSGYYWNWIRQFPGNKLEWMGYISYDGSNNYNPSLKNRISITRDISKNQFFLKLNSVTTEDTATYYCARQIGLRRGAMDYWGQGTSVTVSS
VL: DIQMTQSSSYLSVSLGGRVTITCKASDHINNWLAWYQQKPGNAPRLLISGSTSLKAGVASRFSGSGSGKDYTLTITSLQTEDVATYYCQQYWGIPFTFGGGTKLEIK
notes: Murine hybridoma antibody
- Binding Ratio (GFP + MFI)/(GFP - MFI) (cynomolgus CCR8 [1]): 99.8
- EC50 (human CCR8 [2]): 126 nM
- Max MFI (human CCR8 [2]): 86400 MFI
- EC50 (cynomolgus CCR8 [3]): 0.216 nM
- Max MFI (cynomolgus CCR8 [3]): 2940 MFI
- Inhibition Rate (%) (human CCR8 [4]): 92.4%
- Binding Ratio (GFP + MFI)/(GFP - MFI) (human CCR8 [5]): 404
- EC50 (human CCR8 [6]): 0.139 nM
- Max MFI (human CCR8 [6]): 7210 MFI

B5: 234G9C12 (antibody, V domains shown)
VH: DVQLQESGPGLVKPSQSLSLTCSVTGYSITSGYYWNWIRQFPGNKLEWMGYTSYDGSNNYNPSFKNRISITRDISKNQFFLKLNSVTTEDTATYYCARQIGLRRGAMDHWGQGTSVTVSS
VL: DIQMTQSSSYLSVSLGGRVTITCKASDHINNWLAWYQQKPGNAPRLLISGSTSLRAGVASRFSGSGSGKDYTLTITSLQTEDVATYYCQQYWGIPFTFGGGTKLEIK
notes: Murine hybridoma antibody; also called 234G4C12
- Binding Ratio (GFP + MFI)/(GFP - MFI) (cynomolgus CCR8 [1]): 101
- EC50 (human CCR8 [2]): 18.5 nM
- Max MFI (human CCR8 [2]): 73900 MFI
- EC50 (cynomolgus CCR8 [3]): 0.212 nM
- Max MFI (cynomolgus CCR8 [3]): 4140 MFI
- Inhibition Rate (%) (human CCR8 [4]): 88.9%
- Binding Ratio (GFP + MFI)/(GFP - MFI) (human CCR8 [5]): 413
- EC50 (human CCR8 [6]): 1.42 nM
- Max MFI (human CCR8 [6]): 9840 MFI

B6: 149F2C10 (antibody, V domains shown)
VH: EVQLVESGGGLVQPKGSLKLSCAASGFTFNTYAMNWVRQAPGKGLEWVARIRSKSNFYATYYADSVKDRFTISRDDSQDMLYLQMNILKTEDTAIYYCVRGRDYGSSYAMDYWGQGTSVTVSS
VL: DIVMTQAAPSVPVTPGESVSISCRSSKSLLHSNGNTYLYWFLQRPGQSPQLLIYRMSNLASGVPDRFSGSGSGTAFTLRISRVEAEDVGVYYCMQHLEYPLTFGAGTKLELK
notes: also called 1491F2C0
- Binding Ratio (GFP + MFI)/(GFP - MFI) (cynomolgus CCR8 [1]): 98.2
- EC50 (human CCR8 [2]): 0.878 nM
- Max MFI (human CCR8 [2]): 50700 MFI
- EC50 (cynomolgus CCR8 [3]): 0.479 nM
- Max MFI (cynomolgus CCR8 [3]): 8830 MFI
- Inhibition Rate (%) (human CCR8 [4]): 99.2%
- Binding Ratio (GFP + MFI)/(GFP - MFI) (human CCR8 [5]): 170
- EC50 (human CCR8 [6]): 0.346 nM
- Max MFI (human CCR8 [6]): 12000 MFI

B8: 499B1A5 (antibody, V domains shown)
VH: EVQLVESGGGLVQPKGSLKLSCAASGFTFNTYAMNWVRQAPGKGLEWVARIRSKSNNYATYYADSVKDRFTISRDDSQSMLYLQMNNLKTEDTAMYYCVRHGRSGYLYAMDYWGQGTSVTVSS
VL: DIVMTQAAFSNPVTLGTSASISCRSSKSLLHSNGITYLYWYLQKPGQSPQLLIYQMSNLASGVPDRFSSSGSGTDFTLRISRVEAEDVGVYYCAQSLELPLTFGAGTKLELK
notes: Murine hybridoma antibody (supernatant)
- Binding Ratio (GFP + MFI)/(GFP - MFI) (cynomolgus CCR8 [1]): 35.1
- Inhibition Rate (%) (human CCR8 [4]): 95.1%
- Binding Ratio (GFP + MFI)/(GFP - MFI) (human CCR8 [5]): 34.4

Next, values leading:

- Binding Ratio (GFP + MFI)/(GFP - MFI) (cynomolgus CCR8 [1]): 133
- EC50 (human CCR8 [2]): 0.334 nM
- Max MFI (human CCR8 [2]): 10200 MFI
- EC50 (cynomolgus CCR8 [3]): 0.163 nM
- Max MFI (cynomolgus CCR8 [3]): 3200 MFI
- Inhibition Rate (%) (human CCR8 [4]): 94.7%
- Binding Ratio (GFP + MFI)/(GFP - MFI) (human CCR8 [5]): 145
- EC50 (human CCR8 [6]): 0.142 nM
- Max MFI (human CCR8 [6]): 3620 MFI
B2: 204A2G12 (antibody, V domains shown)
VH: DVQLQESGPGLVKPSQSLSLTCSVTGYSITSGYYWNWIRQFPGNKLEWMGYISYDGTNNYNPSLKNRISITRDTSKNQFFLKLTSVTTEDTATYYCARQVGLRRAWFAYWGQGTLVTVSA
VL: DIQMTQSSSFLSVSLGGRVTITCKASDHINYWLAWYQQKPGNAPRLLISGATSLETGVPSRFSGSGSGKDYTLTITSLQNEDVATYYCHQYWSTPTFGSGTKLEIK
notes: Murine hybridoma antibody

- Binding Ratio (GFP + MFI)/(GFP - MFI) (cynomolgus CCR8 [1]): 112
- EC50 (human CCR8 [2]): 0.137 nM
- Max MFI (human CCR8 [2]): 8490 MFI
- EC50 (cynomolgus CCR8 [3]): 0.154 nM
- Max MFI (cynomolgus CCR8 [3]): 3500 MFI
- Inhibition Rate (%) (human CCR8 [4]): 90.2%
- Binding Ratio (GFP + MFI)/(GFP - MFI) (human CCR8 [5]): 120
- EC50 (human CCR8 [6]): 0.149 nM
- Max MFI (human CCR8 [6]): 4680 MFI
B3: 273H2G6 (antibody, V domains shown)
VH: DVQLQESGPGLVKPSQSLSLTCSVTGYSITSGYYWNWIRQFPGNKLEWMGYISYDGSNNYNPSLKNRISITRDISKNQFFLKLNSVTTEDTATYYCARQVGLRRGAMDYWGQGTSVTVSS
VL: DIQMTQSSSYLSVSLGGRVTITCKASDHINNWLAWYQQKPGNAPRLLISGSTSLKAGVASRFSGSGSGKDYTLSITSLQTEDVATYYCQQYWSIPYTFGGGTKLEIK
notes: Murine hybridoma antibody

- Binding Ratio (GFP + MFI)/(GFP - MFI) (cynomolgus CCR8 [1]): 102
- EC50 (human CCR8 [2]): 0.652 nM
- Max MFI (human CCR8 [2]): 54900 MFI
- EC50 (cynomolgus CCR8 [3]): 0.32 nM
- Max MFI (cynomolgus CCR8 [3]): 8290 MFI
- Inhibition Rate (%) (human CCR8 [4]): 99.4%
- Binding Ratio (GFP + MFI)/(GFP - MFI) (human CCR8 [5]): 198
- EC50 (human CCR8 [6]): 0.277 nM
- Max MFI (human CCR8 [6]): 11900 MFI
B7: 164G10D6 (antibody, V domains shown)
VH: EVQLVESGGGLVQPKGSLKLSCAASGFTFNTYAMNWVRQAPGKGLEWVARIRSKSNFYATYYADSVKDRFTISRDDSQDMLYLQMNILKTEDTAIYYCVRGRDYGSSYAMDYWGQGTSVTVSS
VL: DIVMTQAAPSVPVTPGESVSISCRSSKSLLHSNGNTYLYWFLQRPGQSPQLLIYRMSNLASGVPDRFSGSGSGTAFTLRISRVEAEDVGVYYCMQHLEYPLTFGAGTKLELK
notes: Murine hybridoma antibody; also called 164G10C6

- Binding Ratio (GFP + MFI)/(GFP - MFI) (cynomolgus CCR8 [1]): 92.2
- EC50 (human CCR8 [2]): 0.456 nM
- Max MFI (human CCR8 [2]): 51500 MFI
- EC50 (cynomolgus CCR8 [3]): 0.422 nM
- Max MFI (cynomolgus CCR8 [3]): 8940 MFI
- Inhibition Rate (%) (human CCR8 [4]): 99.1%
- Binding Ratio (GFP + MFI)/(GFP - MFI) (human CCR8 [5]): 168
- EC50 (human CCR8 [6]): 0.278 nM
- Max MFI (human CCR8 [6]): 11900 MFI
B9: 160D1E3 (antibody, V domains shown)
VH: EVQLVESGGGLVQPKGSLKLSCAASGFTFNTYAMNWVRQAPGKGLEWVARIRSKSNYYATYYADSVKDRFTISRDDSQDMLYLQMNNLKTEDTAIYYCVRGRDYGSSYAMDYWGQGTSVTVSS
VL: DIVMTQAAPSVPVTPGESVSISCRSSKSLLHSNGNTYLYWFLQRPGQSPQLLIYRMSNLASGVPDRFSGSGSGTAFTLRISRVEAEDVGVYYCMQHLEYPLTFGAGTKLELK
notes: Murine hybridoma antibody

- Binding Ratio (GFP + MFI)/(GFP - MFI) (cynomolgus CCR8 [1]): 74.2
- EC50 (human CCR8 [2]): 0.397 nM
- Max MFI (human CCR8 [2]): 51500 MFI
- Max MFI (cynomolgus CCR8 [3]): 7580 MFI
- Inhibition Rate (%) (human CCR8 [4]): 100%
- Binding Ratio (GFP + MFI)/(GFP - MFI) (human CCR8 [5]): 169
- EC50 (human CCR8 [6]): 0.111 nM
- Max MFI (human CCR8 [6]): 11000 MFI
B10: 348E2D11 (antibody, V domains shown)
VH: QVQLVETGGGLVRPGNSLKLSCVTSGFSFSNYRMHWLRQPPGKRLEWIAVITVKSDNYGANYAESVKGRFTISRDDSKSSVYLQMNRLREEDTATYYCSSLGRVAYWGQGTLVTVSA
VL: DIVMTQSQKFMFTSVGDRVSVTCKASQNVDTNVVWYQQKPGQSPKALIYSASSRYSGVPDRFTGSGSGTDFTLTISNVQSEDLAEYFCQQHNSFPLTFGAGTKLELI
notes: Murine hybridoma antibody
